Assay [1] has as its target T1, full-length beta-Catenin (Uniprot ID P35222) (Homo sapiens (Human), UniProt P35222 1-781).
T1 construct: also called bCat; B-Catenin
T1 sequence: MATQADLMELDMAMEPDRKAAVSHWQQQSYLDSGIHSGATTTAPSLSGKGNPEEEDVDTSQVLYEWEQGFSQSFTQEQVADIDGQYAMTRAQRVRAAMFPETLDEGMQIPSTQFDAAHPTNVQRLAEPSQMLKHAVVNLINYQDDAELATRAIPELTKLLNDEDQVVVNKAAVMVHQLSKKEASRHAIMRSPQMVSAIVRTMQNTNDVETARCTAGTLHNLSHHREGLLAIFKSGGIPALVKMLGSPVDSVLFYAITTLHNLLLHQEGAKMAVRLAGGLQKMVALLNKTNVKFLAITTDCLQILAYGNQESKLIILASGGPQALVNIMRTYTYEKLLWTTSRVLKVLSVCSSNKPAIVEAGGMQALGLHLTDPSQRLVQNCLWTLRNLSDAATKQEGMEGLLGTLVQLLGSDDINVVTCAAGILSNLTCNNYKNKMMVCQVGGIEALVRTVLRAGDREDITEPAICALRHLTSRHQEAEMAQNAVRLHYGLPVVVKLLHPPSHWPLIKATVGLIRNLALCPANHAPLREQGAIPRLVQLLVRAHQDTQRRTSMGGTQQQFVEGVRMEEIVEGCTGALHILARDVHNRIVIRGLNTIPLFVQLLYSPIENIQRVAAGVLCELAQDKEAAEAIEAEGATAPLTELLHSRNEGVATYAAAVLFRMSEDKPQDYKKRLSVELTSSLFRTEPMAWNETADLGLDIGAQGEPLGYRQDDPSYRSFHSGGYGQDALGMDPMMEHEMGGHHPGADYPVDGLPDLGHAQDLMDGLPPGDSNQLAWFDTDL
Put plainly: fluorescence polarization competition; full-length beta-catenin, competitor 5FAM-TCF4(10-53) probe. In a few lines:
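Incubate 60 minutes at 20° C. away from light, then read polarization in duplicate. Fit to 1:1 binding with hill slope.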

Another assay deals with T2, B-cat-Halo (UniProt P35222 1-781, HaloTag NanoBRET 618 Ligand bound in the assay).
T2 construct: Transfected into HEK293 cells for the NanoBRET assay; also called beta-catenin HaloTag NanoBRET construct; not shown: HaloTag
T2 sequence (looked up): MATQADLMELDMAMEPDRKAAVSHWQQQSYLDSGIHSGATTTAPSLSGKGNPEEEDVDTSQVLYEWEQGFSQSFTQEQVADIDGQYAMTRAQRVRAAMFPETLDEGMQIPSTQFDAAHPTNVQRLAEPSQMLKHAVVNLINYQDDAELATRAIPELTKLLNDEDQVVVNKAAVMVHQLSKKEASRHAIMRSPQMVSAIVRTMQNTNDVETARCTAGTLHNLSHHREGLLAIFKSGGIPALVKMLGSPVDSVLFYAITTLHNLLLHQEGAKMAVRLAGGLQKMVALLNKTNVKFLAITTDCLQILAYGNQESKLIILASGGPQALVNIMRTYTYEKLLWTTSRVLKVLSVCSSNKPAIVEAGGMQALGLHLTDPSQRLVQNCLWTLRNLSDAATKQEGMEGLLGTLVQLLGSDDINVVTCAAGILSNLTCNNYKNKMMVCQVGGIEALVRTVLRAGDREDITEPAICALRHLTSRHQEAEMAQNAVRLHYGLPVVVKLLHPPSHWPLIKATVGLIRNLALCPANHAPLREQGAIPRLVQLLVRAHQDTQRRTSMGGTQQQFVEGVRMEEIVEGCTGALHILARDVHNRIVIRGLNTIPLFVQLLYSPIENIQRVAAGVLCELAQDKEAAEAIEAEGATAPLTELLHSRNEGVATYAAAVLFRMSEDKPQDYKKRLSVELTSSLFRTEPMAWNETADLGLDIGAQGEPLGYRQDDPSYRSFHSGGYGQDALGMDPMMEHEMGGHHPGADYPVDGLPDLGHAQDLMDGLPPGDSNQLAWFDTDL
Put plainly: NanoBRET Abs IC50 in HEK293 cells; B-cat-Halo, competitor TCF4-Luc.

Assay [2] concerns the target T3, beta-catenin in DLD1 TCF/LEF luciferase reporter cells (UniProt P35222 1-781).
T3 sequence (looked up): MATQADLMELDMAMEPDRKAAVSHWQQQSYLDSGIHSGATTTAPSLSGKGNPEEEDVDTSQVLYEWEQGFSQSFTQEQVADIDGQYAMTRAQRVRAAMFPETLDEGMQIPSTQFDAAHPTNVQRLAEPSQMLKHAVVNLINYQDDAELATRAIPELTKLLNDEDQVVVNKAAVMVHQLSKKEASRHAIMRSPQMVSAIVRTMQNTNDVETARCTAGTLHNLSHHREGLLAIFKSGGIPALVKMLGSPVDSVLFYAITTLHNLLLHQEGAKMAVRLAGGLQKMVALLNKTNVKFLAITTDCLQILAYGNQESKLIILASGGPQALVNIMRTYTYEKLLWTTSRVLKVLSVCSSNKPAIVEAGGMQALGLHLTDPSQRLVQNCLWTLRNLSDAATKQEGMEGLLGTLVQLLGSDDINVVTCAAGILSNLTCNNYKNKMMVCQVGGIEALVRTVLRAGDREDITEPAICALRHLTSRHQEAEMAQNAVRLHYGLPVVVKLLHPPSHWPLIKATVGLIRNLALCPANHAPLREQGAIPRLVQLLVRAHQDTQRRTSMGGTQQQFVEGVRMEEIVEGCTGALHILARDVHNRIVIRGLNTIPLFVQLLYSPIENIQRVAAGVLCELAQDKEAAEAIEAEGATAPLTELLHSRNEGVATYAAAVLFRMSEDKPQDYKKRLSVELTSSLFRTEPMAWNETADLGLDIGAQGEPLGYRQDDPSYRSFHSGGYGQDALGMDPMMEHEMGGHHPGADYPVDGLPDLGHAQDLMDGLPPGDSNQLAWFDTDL
Put plainly: cell-based or functional assay.

Starred links: 1 amine or outer side, 2 acyl side, 3 side chain; linkers in the order of their positions; H or OH if unused. Positions of bridges follow the written chain, without caps; N, C: chain ends. Non-standard residues stand in square brackets, D forms with d. Primed or numbered codes have the meaning given here. PyrS2″ = (S)-3-amino-1-((pent-4-en-1-yloxy)carbonyl)pyrrolidine-3-carboxylic acid (stapling residue), C=CCCCOC(=O)N1CC[C@@](N[*:1])(C(=O)[*:2])C1; B5(4) = 2,2-bis(4-pentenyl)glycine = 2-amino-2-(pent-4-en-1-yl)hept-6-enoic acid (stitching residue), C=CCCCC(CCCC=C)(N[*:1])C(=O)[*:2]; TriAzDap = Dap whose side chain is a 1H-1,2,3-triazol-1-yl bearing the bracketed 4-substituent; B5(3) = 2,2-bis(4-pentenyl)glycine (stitching residue), C=CCCCC(CCCC=C)(N[*:1])C(=O)[*:2]; Phe(2-CF3) = N[C@@H](Cc1ccccc1C(F)(F)F)C(=O)O; Bta = N[C@@H](Cc1csc2ccccc12)C(=O)O; αAllylPro = C=CC[C@@]1(C(=O)O)CCCN1; tBuAla = CC(C)(C)C[C@H](N)C(=O)O; S8 = C=CCCCCCC[C@](C)(N)C(=O)O

B1: I-750 (peptide)
peptide: Ac-[αAllylPro]DL[B5(4)]DEAAFN[S8]F[Bta]S-NH2
modifications: staple 1-4, 4-11; also: olefin E/Z not assigned, earlier-eluting staple isomer
notes: Stapled peptide; same description as I-751, earlier eluting staple isomer composition; also called Ac-PL3-Asp-Leu-B5-Asp-Glu-Ala-Ala-Phe-Asn-S8-Phe-BztA-Ser-NH2
For the molecule B1, the results for the half-inhibitory concentration (IC50) (in assay [1]; in the assay with B-cat-Halo) were 43 nM and 7400 nM, respectively.
For Ac-[αAllylPro]D[tBuAla][B5(3)]D[TriAzDap](CH2CMe2CO2H)AAFL[PyrS2″][Phe(2-CF3)][Bta]S-NH2 (staple 1-4, 4-11) [I-2372], the “DLD1 4% Abs IC50” value in assay [2] was determined as 2100 nM.

(Values after US20240116985A1 (published 2024).)
